Consider 16 sequences from a protein production outcome set (Wang et al. 2014).

A short description of this data set: label from the status in PepcDB records.
With “MTSTSITAVEYQSKRLESRLLKETREYVIALPEGYAQSLEAYPVVYLLDGEDQFDHMASLLQFLSQGTMPQIPKVIIVGIHNTNRMRDYTPTHTLVLPSGNKGNPQYQHTGGAGRFLDFIEKELAPSIESQLRTNGINVLVGHSFGGLVAMEALRTDRPLFSAYLALDTSLWFDSPHYLTLLEERVVKGDFKQKQLFMAIANNPLSPGFGVSSYHKDLNLAFADKLTKLAPKGLGFMAKYYPEETHQSVSHIGLYDGIRHLFKDFAIDIYSDSFSKQQVIDQYGVLSERFGHKVTPSQQYLEQLIQYSDRQQLTERKQMLEGLRQHFAKD”, the protein production entry is “not failed”. The result for “MTSYPQQPQQTEQYGVQAGEPPLWAPYYGAPIGAAIRRFFKKYTAFSGRASRSEYWWVALALGVIGIVLQILTGILGAAGSTTTSSGTVPGPGAVVGLILIFVFYLAVLIPSIALLVRRLHDGNFSGWLALLGLIPFVGGLAILVFALLPSNPAGQRFDQPTA” reads “failed”; that for “MTTAQMSVYFFLQAAAILLVCRLVGMLAKRLGQPQVVGEMIAGVMLGPSLFGLLAPGAQAALFPKQTMDVLYVFAQFGVGMYMFLVGTDFRSDHFRARYRSAMSVSLAGIAVPFLLAFAMCPWLINVEGLFSEKAKLMEASLFLGAAIAITAFPMLARIIHERGLATSPLGTLALTAGAFDDASAWCILAVVLASFGGSWGSAYLAIGGGIGYAVFMIFVGRHLLKRLADHVVPGQPLSNSVLAVVLILFCVSAWAMDAIGIHAVFGGFLLGVCLPRGALTEKLREMLQPFVVVLLLPMFFTYSGLKTQLSVLLQPQIMLAGVAILAASFIGKGVACWAAARTTGENNRDAMAIGALMNARGLMELIIINIGLQAGVIEQGLFSVLVLMAILSTLMATPLFNWIMRRHAHVSDAVPSLQSR”, “failed”.

Consider “MTTARPAKARNEGQWALGHREPLNANEELKKAGNPLDVRERIENIYAKQGFDSIDKTDLRGRFRWWGLYTQREQGYDGTWTGDDNIDKLEAKYFMMRVRCDGGALSAAALRTLGQISTEFARDTADISDRQNVQYHWIEVENVPEIWRRLDDVGLQTTEACGDCPRVVLGSPLAGESLDEVLDPTWAIEEIVRRYIGKPDFADLPRKYKTAISGLQDVAHEINDVAFIGVNHPEHGPGLDLWVGGGLSTNPMLAQRVGAWVPLGEVPEVWAAVTSVFRDYGYRRLRAKARLKFLIKDWGIAKFREVLETEYLKRPLIDGPAPEPVKHPIDHVGVQRLKNGLNAVGVAPIAGRVSGTILTAVADLMARAGSDRIRFTPYQKLVILDIPDALLDDLIAGLDALGLQSRPSHWRRNLMACSGIEFCKLSFAETRVRAQHLVPELERRLEDINSQLDVPITVNINGCPNSCARIQIADIGFKGQMIDDGHGGSVEGFQVHLGGHLGLDAGFGRKLRQHKVTSDELGDYIDRVVRNFVKHRSEGERFAQWVIRAEEDDLR”, for which the protein production entry is given as “not failed”. The result for “MTTDTGELVRTNQGTSSEVSSETGTAVQTLSVLYGSQTGNAEFLASKIVDKANGQGYAAELMSLDMLTPQEAARKDRLLIVTATHDNGHMPDNAQPFWDQLQSAGSDLFKDVPFAVLAIGDSMYEDFCKAGSDLDERLGKLGGKRILDRLDCDVDYDLTSGKWIRGMLETFKTVVPKKRDNNPEDSTVPGANPAEQPKGTRREPDTATVVEARLLSAPESEKEVWHYELEVSGDSRNYRPGDSLAVIPTNNIELVEDLLGFLGLAGSEVFGEDGKTVRETLQNDYELRLPHLGIVAWLVENLAPDHPVRNLVESGDRNALEDWLWGRDMLDVLQETRTTDVDPGEFLSMLRPLQHRSYSIASSPLADGDRVHLTVSTVQYETAGRRHSGACSGFLQSAAQTKTTIKVFPLPAHEFHLPHDNSADVIMVGPGVGVAPFRGFLRDREVSQARGRNWLFFGDRHEKPSWLYQEEMEELQSNGVLNRLSVAFSRDQQGKVYVQDRIREEGDGIFAWLSGGASVYVCGGKQIAPDIDEALLAVLRSHGAMTPEKAHDYLQSLKSEGRYVKDVY” reads “failed”; that for “MTTIDIIILIIIGAGVVAGFMKGFIRQLASILGLVVGLLAAKALYATLAEKLCPAVTDSMTVAQVLAFIVIWIAVPLIFTLVASLLTKAMEAISLGWLNRWLGSGLGALKFLLLTSLVICVIEFIDSDNKLISATKKSESLLYYPMETFAGIFFPAAKNITQQYILDNKDATRRTQ”, “failed”. The result for “MTTKPVLVIGGTGKTGRRVVRLLRERGVPARPASRSGEVRFDWLDESTWGPALDGASGVYIVQNDGDPRTRALVRTAVASGVQRLALLSARGVDTPGYYGEDPATSEAFLEGEAAVRESGVDWTVLRPGWFAQNFDEGFFNEGVLAGELRLPAGDGAASWIDVEDIAAVAVAALTEDGHAGRTYELSGPAPLPLAEVLSVIEAAAGRKVRYTPLTTEEFIAELGAQGIPAEEAGLWAAALYPVERGFESKVSDGVRQALGRAPRTFAEYAEAAVAEGAWRD” reads “failed”; that for “MTTLEAFAKARSEGRAALIPYLTAGFPSREGFLQAVEEVLPYADLLEIGLPYSDPLGDGPVIQRASELALRKGMSVQGALELVREVRALTEKPLFLMTYLNPVLAWGPERFFGLFKQAGATGVILPDLPPDEDPGLVRLAQEIGLETVFLLAPTSTDARIATVVRHATGFVYAVSVTGVTGMRERLPEEVKDLVRRIKARTALPVAVGFGVSGKATAAQAAVADGVVVGSALVRALEEGRSLAPLLQEIRQGLQRLEANPGLKESSKKPLP”, “not failed”.

As to “MTTLSTKQKQFLKGLAHHLNPVVMLGGNGLTEGVLAEIENALNHHELIKVKVAGADRETKQLIINAIVRETKAAQVQTIGHILVLYRPSEEAKIQLPRK”, the protein production result is reported as “not failed”. As to “MTTLVLRAKRWLYLLHRWMGVGLCLLFVLWFASGVVMMYVGYPNLTPAERLAHLPGLDAAQVRLGPAQALRAAGLEQAAEIRLAASRAGQPFYAVVPLAGGRTLRVDAASGQLAGRATPAQARASALAYFGARHAAREGGLVSEDAHTHTRTLDEHRPLYVFEMDDPARTRLYVSSSTGEVVRDAPRLERGWNYVGAWLHWLYPLRGAYWHDIVVWLSVLGVALTVSGTVVGLWRWRFARPYASGSRSPYRERFMRWHHIAGLLFAATTLTWIFSGLMSMNPWQVFGTRATQLDRAAYRGGPLQADNLPAGPAVAMPARKLVWTRVAGQTLLQVYGAAGAPALRTADGAAPRTLAPATLGVALGRLLPSAAPPRIEVLDGYDSYYYARAPHTMLGHVEKPLPVWRVVYDDPRGTWLHVDPRSGEILGSLDRPRRVSRWLFAFLHSWDWPPLLQRRPAWDAVLIVLSLGGLLLSGAGVVIGWRRVGRKLR”, the protein production result is “failed”.

Regarding “MTTLVPLNRIDSQKIEDLLDIGFGKDRHGRTAYRLRQGVSAIPELSFAAVDGDILQGIIQCWPIRLSCLNGKKLPMILLGPVAVHPDYQGHGIGQTLVQHSLDVADSSDITGHDAVMLIGDPEYYNRFFGFSDEETGDWRLPGPVEKRRLLARLTSPRL”, the protein production entry was “failed”. “MTTPFVLAVPSKGRLQENAEAFFARAGLTLSKLGGARDYRGTIAGLDNVEIAYLSASEIAAQLARGTVHLGITGEDLIRESIADADKKVALIEGLGFGGANVVVAVPQAWIDVRTMADLDDVTTGFRAQHNRRMRVATKYINLTRNFFAAHGVVDYRIVESAGATEGAPAVGTAEMIVDITSSGATLVANGLKVLDDGVILRSQANLVASRAADWSADALETARVILDRIAARARANKYKEVRTRFAGCDASLLTEAHNRFGVVSPFGGPTSSGMITLHCPPAQLYALGSFLRDHGADTVSIASLDYVLDRENPLFAKLESFLRQ”: the protein production entry is “failed”.

“MTTPLSPEATPPHGDLASGNVTRRILGIVVFNFIAYLSVGLPIAVVPGFVHGDLGYSAVLAGLAVSIQYLATLLSRPWAGSLCDMKGPKRSVLTGLLLCAGSGLLMLVAAQFAGNDWLALGWLLSSRLMLGAGESLVTTGTIAWGIGSVGARHTAKVISWNGVTTYGALAVGAPVGVLLAGHGGLTAIGIVTSVIAGASWLLARRQAAVPILKGERLPFRSVFRAMSPFGLCLGLGSVGFGAITAFITLYYAGHGWDHAALALTALGTCFVLTRLIMADSITRFGGYPVALVSFAVEAAGLAMLWLAQAPWQALAGAAVVGFGFSLVFPSLGIEAVKRVPATNRGSALGAYALFFDFSLGLTGPVAGLITKHAGYPAVYLFAALAAVLALVLSQVLAARYRDRLAPAT”: the protein production result is “failed”. “MTTPNFELYGYFRSSCSGRLRIAFHLKSIPYTRHPVNLLKGEQHSDTYKSLNPTNTVPLLVVSNINNTVSPSSASFSIGQSLAALEYLEEALPTNARPLLPPISNPVARAHVRTICNIIACDVQPVTNLKIQKKVKALDGDPTVWSRDLATQGFGAVEKLLELSAGRFCVGDEITLADVCLVPAVWAAERVGMDLARFPITKRVFEEMLKEEAVQKAHWQKQEDTPEDLRA”: the protein production entry is on record as “not failed”.

Consider “MTTRILTGITPTGTPHLGNYAGAIRPAILASRRSDVDSFYFLADYHALIKCDDPARIQRSRLEIAATWLAGGLDVERATFYRQSDIPEIPELTWLLTCVSAKGLLNRAHAYKAAVDRNVEAGEDPDAGVTMGLYSYPVLMAADILMFNAHKIPVGRDQVQHVEMARDIGQRFNHLFGNGREFFVLPEAVIEENVATLPGLDGRKMSKSYDNTIPLFSPSRQLKDAIARIVTDSRAPGEPKDPDSSHLFLLYSAFASAEQVAAFRQELLEGLAWGEAKQRLFQLLDNELGEARERYQALIAKPDDIEDILLAGAAKARRIATPFIAELREAVGLRSLREPLKSAESGKKKAAKAARLVSFRDDDGSFRFRLLDAAGEQLLLSRAFADGKAAGAVSKRLLAGETADLRAEGNAFGLWLDGEAVAQSPAFADAAARDAAIERTREALAPQ”, for which the protein production result is on record as “failed”. Regarding “MTTTSSINERQVLKHLQAQLPDCLLLDRFHLKRRLQQVGAMLEQGKPVDKLMTELATKVQTSLQRRQLRQEQLPKPEYPAELPVSARKDEIAQAIAKHQVVIVSGETGSGKTTQLPKICLELGRGVAGLIGHTQPRRIAARSVASRIAQELKSPLGEAVGYKVRFNDRLSETTYIKLMTDGILLAETQGDRFLNAYDTIIIDEAHERSLNIDFLLGYLKQLLPRRPDLKVIVTSATIDAERFSRHFNGAPVIEVSGRTYPVEIRYRPLGSRRMVVAPPAPVAAPVPVVAQKEEAPQEDIIDIGIKRKAGNIDPSIRKWLEDDNDVEVLGQDIMGIQRKPRAEAKWLEEDDAEEAMEEAILDSVEQLSRLGGGDILVFLPGEREIRETADYLNKHLRHVEILPLFARLSIEDQQKVFRSSGGRRVVLATNVAETSLTVPGIKYVIDTGLARVNRYSARAKVEQLQVEKISQAAARQRAGRCGRVSNGICIRLYDEADFNHRPEFTDPEILRSSLAAVILRMAALKLGNVQDFPFIEAPSSRYIADGYQLLQELGAVDAEQNITDTGRQLARLPLDPRVSRMILEGKKQGCVREILIIASALAIQDPRERPMDKREAADQAHAKFNVEHSDFLGFIKLWEWYEDALKTKKSNKDLLNKCHSNFLSFLRLKEWRELYQQLREIAEELELKLNEQPASYEQVHRALLAGLLGNIGFKDGEADNYLGARGIRFHIAPGSTLKKARPKWVMAAELMETTKLYARCVARIEPDWIEPLARGLTQSHYSDPRWDRKAAQVVAWERVSLYGLTVVPRRRVHYGPINPQESREIFIREALANMEFDTRAPFFAANRKLIAEIEELEHKARRQDVLVDEHTLFAFYDAIIPAGIVNGAGFEKWRQEAERETPRLLYLTRDHLMRHGAAGVTEVQFPESLELDGVKLPLKYRFEPGHPLDGVTATVPLALLNQLNPVEAEWLVPGMIREKVTALIKALPKTLRRVCVPVPDFVTGFLETATRKDGALLPALASYIQQRTGLKLSASEWQADALDAHLYMNFRVVDEKNRELGSGRDWHALKAQLGQAAQLTFRSNSPGIEKAGLKQWDFGDLPPTLSFSRDGRQLTGYPALEDNGDSVAIKLFDTELAARQSHRAGVRRLMRFELKEQMKQLEKGLPGFNQYALQLRSIMSPEELREDMLVAISDRAFIGEDELPRNSQDFMALKARARTRLPAVVEGAGRLATAIATEYTQLTQKLNAAPASLSRVKKELEGQLARLLPKRFFSATPWDTLQHLPRYIKAMRLRLEKYPGAIERDTRSGQAVQQIWERWESHVQGLRKANQEVPPAVLDYRWLIEELRVSLFAQELKTPFPVSVKRLDKAWEDMVRA”, the protein production result is reported as “failed”.
